According to article PMC4426023 (Cell reports, 2015):

Experiments:
[1] = molecular target: DOT1L Site 1 peptide, fluorescently tagged (UniProt Q8TEK3); assay: fluorescence polarisation
[2] = molecular target: DOT1L Site 2 peptide, fluorescently tagged (UniProt Q8TEK3); assay: fluorescence polarisation
[3] = molecular target: T1, DOT1L repeat motif (Sites 2 and 3, aa. 863–900) (UniProt Q8TEK3 863-900); assay: SEC
T1 chain (looked up): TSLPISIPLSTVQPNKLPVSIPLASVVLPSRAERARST

Sequence of DOT1L Site 1 peptide, fluorescently tagged (Q8TEK3 628-653): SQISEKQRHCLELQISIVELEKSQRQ

Molecule | Kd [1] [nM] | fold weaker affinity than DOT1L (Site 3) [2] [fold] | stoichiometry N [3]
MBP-AF9 AHD (WT) (domain or fragment) | > 2000 | 17 | 
AF9 ANC1 homology domain (aa. 499–568) (domain or fragment, UniProt P42568 499-568, looked up) CDKAYLDELVELHRRLMTLRERHILQQIVNLIEETGHFHITNTTFDFDLCSLDKTTVRKLQSYLETSGTS |  |  | 2
